Measured values: patent publication US20090068173A1 (LABORATOIRES SERONO S A, published 2009)

Biological target: T1, CCL3/MIP-1 alpha (UniProt P10147 24-92)
T1 construct: also called MIP-1α; 125I-CCL3/MIP-1 alpha
T1 sequence (looked up): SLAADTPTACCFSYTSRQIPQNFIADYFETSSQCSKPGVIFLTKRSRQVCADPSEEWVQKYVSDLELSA
Test: SPA competition: ChBP-59-HIS (insect cells) titrated against radiolabeled CCL3/MIP-1 alpha and bead-immobilized CCR5

B1: ChBP-59-HIS (recombinant histidine-tagged ChBP-59, mature form) (other)
chain: EDDEDYGDLGGCPFLVAENKTGYPTIVACKQDCNGTTETAPNGTRCFSIGDEGLRRMTANLPYDCPLGQCSNGDCIPKETYEVCYRRNWRDKKNHHHHHH
EC50: 12 pM
